The values below come from patent US20030059769, “High affinity nucleic acid ligands to lectins” (published 2003).

T1: L-selectin (LS-Rg) (Homo sapiens, UniProt P14151 P14151:39-332)
T1 sequence: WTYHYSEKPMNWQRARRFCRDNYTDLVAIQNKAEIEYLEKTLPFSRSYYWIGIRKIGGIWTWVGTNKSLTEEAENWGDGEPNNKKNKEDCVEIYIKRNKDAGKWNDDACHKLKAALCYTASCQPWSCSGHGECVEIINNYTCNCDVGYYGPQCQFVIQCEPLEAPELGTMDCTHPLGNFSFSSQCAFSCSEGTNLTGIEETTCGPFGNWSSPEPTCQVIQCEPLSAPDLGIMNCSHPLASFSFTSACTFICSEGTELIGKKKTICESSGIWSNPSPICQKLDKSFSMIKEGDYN

B1: PF377L1 (ssRNA)
RNA: CUCAACGAGCCAGGACUACGAUCAGCAAACGCGAG
modifications: 2'-F on all C and U
B2: PF377M6 (ssRNA)
RNA: CUCAACGAGCCAGGAACAUCGACGUCAGCAAACGCGAG
modifications: 2'-F on all C and U; 2'-OMe purines at 11 positions
B3: PF422s1 (ssRNA)
RNA: GAAUCCGGAACACGCGAGAAAACAAAUCAACGACCAAUCGAUUCG
modifications: 2'-F on all C and U
B4: PF373s1 (ssRNA)
RNA: CUCAACGAAUCAGUAAACAUAACACCAUGAAACAUAAAUAGCACGCGAG
modifications: 2'-F on all C and U
B5: PF377M3 (ssRNA)
RNA: B2 RNA
modifications: 2'-F C and U; 2'-OMe G 7,9,14,21,36 and A 8,15,18,22,27,31,37 as listed
B6: PF377s1B (ssRNA)
RNA: B2 RNA
modifications: 2'-F C and U, biotin
B7: PF377M4 (ssRNA)
RNA: B2 RNA
modifications: 2'-F C and U; 2'-OMe G 7,9,13,14,21,24,28,36 and A 8,15,18,22,27,30,31,37 as listed
B8: PF377M1 (ssRNA)
RNA: B2 RNA
modifications: 2'-F C and U; 2'-OMe G7 G9 G14 G21 A8 A15 A18 A22 A27 A31
B9: PF416s2 (ssRNA)
RNA: CACUCAACCGGCACCAGACUACGAUCAGCAUUGGCGAGUG
modifications: 2'-F C and U
B10: PF377s2 (ssRNA)
RNA: CGCUCAACGAGCCAGGAACAUCGACGUCAGCAAACGCGAGCG
modifications: 2'-F C and U
B11: PF377s1F (ssRNA)
RNA: B2 RNA
modifications: 2'-F C and U
B12: PA341 (ssRNA)
RNA: GGGAGACAAGAAUAAACGCUCAAGCCCCAAACGCAAGCGAGCAUCCGCAACAGGGAAGAAGACAGACGAAUGAUUCGACAGGAGGCUCACAACAGGC
modifications: 2'-NH2 C and U
B13: PF377L1 (ssRNA)
RNA: B1 RNA
modifications: 2'-F C and U
B14: PF377M5 (ssRNA)
RNA: B2 RNA
modifications: 2'-F C and U; 2'-OMe G 7,9,14 and A 8,15,18,27,31
B15: PF377s1-5'NH2 (ssRNA)
RNA: B2 RNA
modifications: 2'-F C and U, 5' NH2
B16: PF377s1 (ssRNA)
RNA: B2 RNA
modifications: 2'-F C and U
B17: PF387s1 (ssRNA)
RNA: CUCAACGCACCAGGAACAACGAGAACCAUCAGUAAACGCGAG
modifications: 2'-F C and U
B18: PF383s1 (ssRNA)
RNA: B17 RNA with G21A, A36G
modifications: 2'-F C and U
B19: PF422s1 (ssRNA)
RNA: B3 RNA
modifications: 2'-F C and U
B20: PF373s1 (ssRNA)
RNA: B4 RNA
modifications: 2'-F C and U
B21: LF1615 (ssRNA)
RNA: GGGAGGACGAUGCGGCGUAACUUCAGCGGUGUGUUAAUCAAGCCUUACGCCAUCUCAGACGACUCGCCCGA
modifications: 2'-F on all C and U
B22: LF1518 (ssRNA)
RNA: GGGAGGACGAUGCGGGCAAAUUGCAUGCGUUUUCGAGUGCUUGCUCAGACGACUCGCCCGA
modifications: 2'-F on all C and U
B23: LF1513 (ssRNA)
RNA: GGGAGGACGAUGCGGGCUCUUCAGCAACGUGUUAUCAAGUUAGCCCAGACGACUCGCCCGA
modifications: 2'-F on all C and U
B24: LF1811 (ssRNA)
RNA: GGGAGGACGAUGCGGUAAUCUCUUAGGCAUCGCGUUAAUCGAGAUAGAUCACCGUCAGACGACUCGCCCGA
modifications: 2'-F on all C and U
B25: LF1610 (ssRNA)
RNA: GGGAGGACGAUGCGGAGGGUCUUAAGCAGUGUGAUAAUCAAACUACUCUCCGUGUCAGACGACUCGCCCGA
modifications: 2'-F on all C and U
B26: LF1613 (ssRNA)
RNA: GGGAGGACGAUGCGGUGCUAUUCUUAAGCGGCGUGUUUUUCAAGCCAAUAUCAUCAGACGACUCGCCCGA
modifications: 2'-F on all C and U
B27: LF1508 (ssRNA)
RNA: GGGAGGACGAUGCGGGACCCUUAGGCAACGUGUUUUCAAGUUGGUCAGACGACUCGCCCGA
modifications: 2'-F on all C and U
B28: LF1523 (ssRNA)
RNA: GGGAGGACGAUGCGGUUCUUAAGCAGCGCGUCAAUCGAGCUAACCCAGACGACUCGCCCGA
modifications: 2'-F on all C and U
B29: LF1514 (ssRNA)
RNA: GGGAGGACGAUGCGGUACCUCAAAUUGCGUGUUUUCAAGCAGUAUCAGACGACUCGCCCGA
modifications: 2'-F on all C and U
B30: LF1807 (ssRNA)
RNA: GGGAGGACGAUGCGGAGUCUUAGGCAGCGCGUUUUCGAGCUACUCCAUCGCCAGUCAGACGACUCGCCCGA
modifications: 2'-F on all C and U
B31: PF411 (ssRNA)
RNA: GGGAGACAAGAAUAAACGCUCAACAACCCAACCAUCUAGAGCUUCGAACCAUGGUAUACAAGGGAACACAAAAUUCGCGGAGGCUCCAACAGGCGGC
modifications: 2'-F on all C and U
B32: PF395 (ssRNA)
RNA: GGGAGACAAGAAUAAACGCUCAACGAGCAAGGAACGAAUACAAACCAGGAAACUCAGCAACACGCGAGCAGUAAGAAUUCGACAGGAGGCUCACAACAGGC
modifications: 2'-F on all C and U
B33: PF373 (ssRNA)
RNA: GGGAGACAAGAAUAAACGCUCAACGAAUCAGUAAACAUAACACCAUGAAACAUAAAUAGCACGCGAGACGUCUUCGACAGGAGGCUCACAACAGGC
modifications: 2'-F on all C and U
B34: PF378 (ssRNA)
RNA: GGGAGACAAGAAUAAACGCUCAACGAUGAGCGUGACCGAAGCUAUAAUCAGGUCGAUUCACCAAGCAAUCUUAUUCGACAGGAGGCUCACAACAGGC
modifications: 2'-F on all C and U
B35: PF396 (ssRNA)
RNA: GGGAGACAAGAAUAAACGCUCAAGCGGUCAGAAACAAUAGCUGGAUACAUACCGCGCAUCCGCUGGGCGAUAUUCGACAGGAGGCUCACAACAGGC
modifications: 2'-F on all C and U
B36: PF381 (ssRNA)
RNA: GGGAGACAAGAAUAAACGCUCAAAGGAUCACACAAACAUCGGUCAAUAAAUAAGUAUUGAUAGCGGGGAUAUUCGACAGGAGGCUCACAACAGGC
modifications: 2'-F on all C and U

Residue numbers refer to the chain shown, from its start.

For the first series, the target named is T2, P-selectin (PS-Rg) (Homo sapiens, UniProt P16109 P16109:42-321). Kind of series: filter; HSMC. Conditions: tags: human IgG1 Fc fusion; chain copies: dimer.
T2 sequence (P16109 42-321, one chain of several): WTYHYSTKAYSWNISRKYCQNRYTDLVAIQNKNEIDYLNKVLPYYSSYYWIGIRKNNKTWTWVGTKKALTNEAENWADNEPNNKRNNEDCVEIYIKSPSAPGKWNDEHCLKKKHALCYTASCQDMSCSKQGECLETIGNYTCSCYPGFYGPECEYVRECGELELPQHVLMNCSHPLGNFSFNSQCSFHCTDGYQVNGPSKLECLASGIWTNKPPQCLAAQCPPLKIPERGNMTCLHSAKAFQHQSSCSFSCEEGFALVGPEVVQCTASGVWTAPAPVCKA
Usually Kd stands for the constant that tells how readily two partners part at equilibrium. B1 showed a Kd of 0.22 nM.
On to B2, for which the Kd stood at 0.25 nM.
On the same count and under the same terms, the figure for B3 is 1 nM; for B4 it is 0.056 nM.

Staying with this series, now noted: tags: human IgG Fc fusion; chain copies: 2 (stated dimer).
The molecule B5 yielded an equilibrium dissociation constant (Kd) of 0.9 nM.
The same measure, in the same setting: the figure for B6 is 0.065 nM.
For the molecule B7, the affinity, expressed as Kd, was 1.7 nM.
The molecule B8 gave a Kd of 0.12 nM.
B9 had a Kd of 0.15 nM. The Kd values of the last two molecules are within 1.5-fold of each other.
With B10, the dissociation constant (Kd) stood at 0.045 nM.

The same series, now with this note: tags: human IgG Fc fusion; chain copies: 2 (stated dimer); label: fluorescein (inferred).
Turning to B11, the affinity, expressed as Kd, was 0.06 nM.

Another series deals with T2, P-selectin (PS-Rg). Kind of series: inhibition; sialyl-LewisX. The following applies: tags: human IgG Fc fusion; chain copies: 2 (stated dimer). Here is the method:
The ability of evolved RNA pools or cloned ligands to inhibit the binding of PS-Rg to sialyl-Lewis^x was tested in competitive ELISA assays (C. Foxall et al., 1992, supra). For these assays, the wells of Corning (25801) 96 well microtiter plates were coated with 100 ng of a sialyl-Lewis^x/BSA conjugate, air dried overnight, washed with 300 μl of PBS(−) and then blocked with 1% BSA in HSMC for 60 min at room temperature. RNA ligands were incubated with PS-Rg in HSMC/1% BSA at room temperature for 15 min. After removal of the blocking solution, 50 μl of PS-Rg (10 nM) or a PS-Rg (10 nM)/RNA ligand mix was added to the coated, blocked wells and incubated at room temperature for 60 minutes. The binding solution was removed, wells were washed with 300 μl of PBS(−) and then probed with HRP conjugated anti-human IgG, at room temperature to quantitate PS-Rg binding. After a 30 minute incubation at room temperature in the dark with OPD peroxidase substrate (Sigma P9187), the extent of PS-Rg binding and percent inhibition was determined from the OD₄₅₀.
As a reminder, the IC50 is the point on the concentration scale where inhibition reaches its midpoint. A lower IC50 goes with inhibition by little substance. With B12, it took 3 nM to reach half-maximal inhibition (IC50).
B13 returned an IC50 of 4 nM.
B5: the IC50 came out at 10 nM.
For the molecule B6, it took 3 nM to reach half-maximal inhibition (IC50). Compared with the last molecule, the IC50 is about 3.3-fold lower.
Same read-out and setting: the figure for B14 is 2 nM.
On the same count and under the same terms, for B15 the value was 2 nM.
On the same count and under the same terms, for B16 the value was 2 nM; for B17, 2 nM.
The molecule B18 returned an IC50 of 25 nM.
On the same count and under the same terms, the figure for B19 is 8 nM.
On the same count and under the same terms, for B9 the value was 3 nM.
In turn, B10 came in with an IC50 of 4 nM.
Still for that read-out and setting: for B20 the value was 3 nM.

Still in this series, the particulars now being: tags: human IgG Fc fusion; chain copies: 2 (stated dimer); label: fluorescein (inferred).
For the molecule B11, the IC50 was found to be 3 nM. This lies in the single-digit nanomolar range.

The target of another series is T1, L-selectin (LS-Rg). Kind of series: filter; 37 C, SHMCK-140. Conditions: tags: human IgG2 Fc fusion; chain copies: dimer; label: 32P. Here is the method: As described in SELEX Patent Applications, a nitrocellulose filter partitioning method was used to determine the affinity of RNA ligands for LS-Rg and for other proteins. Filter discs (nitrocellulose/cellulose acetate mixed matrix, 0.45 μm pore size, Millipore) were placed on a vacuum manifold and washed with 3 ml of SHMCK 140 buffer under vacuum. Reaction mixtures, containing ³²P labeled RNA pools and unlabeled LS-Rg, were incubated in SHMCK 140 for 10-20 min at 37° C., and then immediately washed with 3 ml SHMCK 140. The filters were air-dried and counted in a Beckman LS6500 liquid scintillation counter without fluor. Alternatively, binding studies employed 96 well micro-titer manifolds essentially as described in Example 13, paragraph E.
These calculations assume two ligand binding sites per chimera.
B21: the affinity, expressed as Kd, was 0.32 nM. In other words, the sub-nanomolar range.
As to B22, binding was characterised by a dissociation constant (Kd) of 0.42 nM. This Kd and that of the molecule before are within 1.5-fold of each other.
Regarding B23, the equilibrium dissociation constant (Kd) turned out to be 0.16 nM.
B24: the equilibrium dissociation constant (Kd) turned out to be 0.19 nM.
Same read-out and setting: for B25 the value was 0.53 nM.
Consider B26, for which the Kd amounted to 0.034 nM.
Take B27: the Kd worked out at 0.5 nM.
The same measure, in the same setting: for B28 the value was 0.25 nM.

Still in this series, the particulars now being: tags: human IgG2 Fc fusion; chain copies: dimer; label: 32P; hairpin with 7-nt bulge.
Regarding B29, binding was put at a Kd of 0.13 nM.
Still for that read-out and setting: for B30 the value was 0.034 nM.

The target in a further series is T2, P-selectin (PS-Rg). Kind of series: filter; 37 C, HSMC. The following applies: tags: human IgG1 Fc fusion; chain copies: dimer; label: 32P.
B31: binding was put at a Kd of 0.013 nM.
On the same count and under the same terms, the figure for B32 is 0.026 nM.
Consider B33, for which the affinity, expressed as Kd, was 0.0495 nM.
The molecule B34 yielded a Kd of 0.0515 nM.
Same read-out and setting: for B35 the value was 0.024 nM.
B36 came in with a Kd of 0.0165 nM. The Kd values of the last two molecules are within 1.5-fold of each other.
